Measured values published in paper PMC6643034.

Target: CXCL8 (human)

B1: Evasin 3 (EVA3) (natural protein)
chain: DGGLVSTIESRTSGDGADNFDVVSCNKNCTSGQNECPEGCFCGLLGQNKKGHCYKIIGNLSGEPPVVRR
modifications: also: glycosylated
  neutralization of human CXCL8-induced granulocyte migration (Transwell, EC80 dose of CXCL8, EVA3 0.02–100 nM); mean IC50 of four biological replicates: 1.94e-09 M
